The target in experiment [1] is T1, rHuman ErbB2/Fc Chimera, CF (R&D Systems Cat#1129-ER) (human, UniProt P04626 23-652).
T1 construct: Bought Fc chimera; also called HER2/neu; Fc part of the bought chimera not given
The experiment can be described thus: MSD ECL titration, Fab 0.1 nM, blank 201.

Experiment [2] concerns the target T2, rHuman EGF R/Fc Chimera, CF (R&D Systems Cat#344-ER) (human, UniProt P00533 25-645).
T2 construct: Bought Fc chimera; Fc part of the bought chimera not given
Description: MSD ECL titration, Fab 0.1 nM, blank 201.

Experiment [3] concerns the target T3, rHuman IGF-1 sR (insulin-like growth factor-1 soluble receptor), CF (R&D Systems Cat#391-GR) (human, UniProt P08069 31-932).
T3 construct: Bought soluble receptor; also called IGF-R1
Description: MSD ECL titration, Fab 0.1 nM, blank 201.

Experiment [4] concerns the target T4, rHuman CD44/Fc Chimera, CF (R&D Systems Cat#3660-CD) (human, UniProt P16070 21-220).
T4 construct: Bought Fc chimera; Fc part of the bought chimera not given
The experiment can be described thus: MSD ECL titration, Fab 0.1 nM, blank 201.

Experiment [5] addresses T5, Recombinant Human DLL4 (R&D Systems Cat#1506-D4/CF) (human, UniProt Q9NR61 27-524).
T5 construct: Bought recombinant protein; also called rHuman DLL4; delta-like protein 4
Description: MSD ECL titration, Fab 0.1 nM, blank 201.

The target in experiment [6] is T6, rHuman EGF R/Fc Chimera, CF (R&D Systems Cat#344-ER) (human, UniProt P00533 25-645).
T6 construct: Bought Fc chimera; also called ErbB-1; not shown: Fc of the bought chimera
Description: ECL (MSD multi-spot), antigen on plate, Fab 0.4 nM.

Experiment [7] has as its target T7, rHuman ErbB2/Fc Chimera, CF (R&D Systems Cat#1129-ER) (human, UniProt P04626 23-652).
T7 construct: Bought Fc chimera; also called HER2/neu; not shown: Fc of the bought chimera
The experiment can be described thus: ECL (MSD multi-spot), antigen on plate, Fab 0.4 nM.

For experiment [8], the target named is T8, rHuman Notch-1/Fc Chimera, CF (R&D Systems Cat#3647-TK) (human, UniProt P46531 19-526).
T8 construct: Bought Fc chimera; not shown: Fc of the bought chimera
The experiment can be described thus: ECL (MSD multi-spot), antigen on plate, Fab 0.4 nM.

The target of experiment [9] is T9, rHuman IGF-1 sR (insulin-like growth factor-1 soluble receptor), CF (R&D Systems Cat#391-GR) (human, UniProt P08069 31-932).
T9 construct: Bought soluble receptor; also called IGF-R1
Description: ECL (MSD multi-spot), antigen on plate, Fab 0.4 nM.

The target of experiment [10] is T10, rHuman P-Cadherin/Fc Chimera, CF (R&D Systems Cat#861-PC) (human, UniProt P22223 108-654).
T10 construct: Bought Fc chimera; also called CDH3; not shown: Fc of the bought chimera
The experiment can be described thus: ECL (MSD multi-spot), antigen on plate, Fab 0.4 nM.

The target of experiment [11] is T11, Recombinant Human DLL4 (R&D Systems Cat#1506-D4/CF) (human, UniProt Q9NR61 27-524).
T11 construct: Bought recombinant protein; also called delta-like protein 4
The experiment can be described thus: ECL (MSD multi-spot), antigen on plate, Fab 0.4 nM.

Experiment [12] concerns the target T12, rHuman Erythropoietin R/Fc Chimera, CF (R&D Systems Cat#963-ER) (human, UniProt P19235 25-250).
T12 construct: Bought Fc chimera; also called EPO R/Fc; Epo R; not shown: Fc of the bought chimera
T12 sequence: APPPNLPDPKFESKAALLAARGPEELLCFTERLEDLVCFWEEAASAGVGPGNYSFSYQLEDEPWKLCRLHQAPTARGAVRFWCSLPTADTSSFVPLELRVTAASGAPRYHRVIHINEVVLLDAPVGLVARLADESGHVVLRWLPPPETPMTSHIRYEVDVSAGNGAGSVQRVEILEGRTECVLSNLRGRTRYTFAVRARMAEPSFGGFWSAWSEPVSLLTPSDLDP
The experiment can be described thus: ECL (MSD multi-spot), antigen on plate, Fab 0.4 nM.

Experiment [13] addresses T13, rHuman CD44/Fc Chimera, CF (R&D Systems Cat#3660-CD) (human, UniProt P16070 21-220).
T13 construct: Bought Fc chimera; not shown: Fc of the bought chimera
Description: ECL (MSD multi-spot), antigen on plate, Fab 0.4 nM.

In experiment [14] the target is T14, rHuman HGF R/c-MET/Fc Chimera, CF (R&D Systems Cat#358-MT/CF) (human, UniProt P08581 25-932).
T14 construct: Bought Fc chimera; also called HGF R/Fc; not shown: Fc of the bought chimera
Description: ECL (MSD multi-spot), antigen on plate, Fab 0.4 nM.

In experiment [15] the target is T15, rHuman Notch-1/Fc Chimera, CF (R&D Systems Cat#3647-TK) (human, UniProt P46531 19-526).
T15 construct: Bought Fc chimera; Fc part of the bought chimera not given
The experiment can be described thus: ECL (MSD Multi-Spot) binding assay, antigen spotted on plate; Fab 240 nM; blank spot 316.

Experiment [16] deals with T16, rHuman CD44/Fc Chimera, CF (R&D Systems Cat#3660-CD) (human, UniProt P16070 21-220).
T16 construct: Bought Fc chimera; Fc part of the bought chimera not given
The description is as above.

For experiment [17], the target named is T17, Recombinant Human DLL4 (R&D Systems Cat#1506-D4/CF) (human, UniProt Q9NR61 27-524).
T17 construct: Bought recombinant protein; also called delta-like protein 4; rHuman DLL4
The description is as above.

In experiment [18] the target is T18, rHuman P-Cadherin/Fc Chimera, CF (R&D Systems Cat#861-PC) (human, UniProt P22223 108-654).
T18 construct: Bought Fc chimera; also called CDH3; Fc part of the bought chimera not given
The description is as above.

Experiment [19] addresses T19, rHuman Erythropoietin R/Fc Chimera, CF (R&D Systems Cat#963-ER) (human, UniProt P19235 25-250).
T19 construct: Bought Fc chimera; also called EPO R/Fc; Epo R; Fc part of the bought chimera not given
T19 sequence: T12 sequence
The description is as above.

Among the data in US20120058906A1 (published 2012) are ECL signal values, retold here.

Positions count from the first letter of the chain named.
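Note: blank spot per well as comparator with Hit at signal to blank ratio of 4 or more.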

B1: Fab VH1-46_IGHD6-6*01_IGHJ1*01 & L6_IGKJ1*01 (Fab, V domains shown)
VH: QVQLVQSGAEVKKPGASVKVSCKASGYTFTSYYMHWVRQAPGQGLEWMGIINPSGGSTSYAQKFQGRVTMTRDTSTSTVYMELSSLRSEDTAVYYCAREEYSSSSAEYFQHWGQGTLVTVSS
VL: not shown
notes: Expressed in E. coli as Fab: heavy chain with CH1 plus Flag and His tags from Plasmid A, kappa light chain constant region from Plasmid C; also called Fab No. 1
For the molecule B1, the ECL signal turned out to be 306 in experiment [1]; 311 in [2]; 241 in experiment [3]; 323 in experiment [4]; 317 in [5].

B2: Fab VH1-46_IGHD6-6*01_IGHJ1*01_S102A_S103P_S104F & L6_IGKJ1*01_S31K (Fab, V domains shown)
VH: B1 VH with S102A, S103P, S104F
VL: EIVLTQSPATLSLSPGERATLSCRASQSVSKYLAWYQQKPGQAPRLLIYDASNRATGIPARFSGSGSGTDFTLTISSLEPEDFAVYYCQQRSNWPPWTFGQGTKVEIKR
notes: Fab
For B2, the ECL signal is 175 ECL signal in experiment [6]; 159 ECL signal in experiment [7]; 197 ECL signal in [8]; 65 ECL signal in experiment [9]; 151 ECL signal in [10]; 1260 ECL signal in experiment [11]. The values for the ECL signal in experiment [12], in experiment [13] and in experiment [14] were 217 ECL signal, 190 ECL signal and 119 ECL signal, respectively.

B3: Fab VH6-1_IGHD3-3*01_IGHJ4*01 & V4-3_IGLJ4*01 (Fab, V domains shown)
VH: QVQLQQSGPGLVKPSQTLSLTCAISGDSVSSNSAAWNWIRQSPSRGLEWLGRTYYRSKWYNDYAVSVKSRITINPDTSKNQFSLQLNSVTPEDTAVYYCAREYYDFWSGYYTDYFDYWGQGTLVTVSS
VL: QPVLTQPTSLSASPGASARLTCTLRSGINLGSYRIFWYQQKPESPPRYLLSYYSDSSKHQGSGVPSRFSGSKDASSNAGILVISGLQSEDEADYYCMIWHSSASFVFGGGTQLIIL
notes: Tested as a Fab made in E. coli; also called IGHV6-1*01
Take B3: the ECL signal in experiment [15] was 368; in [16], 470; in [17], 1270; in experiment [18], 383; in experiment [19], 478.
